Publication PMC5993042

Biological target: estrogen receptor α (as used in the TR-FRET assay) (UniProt P03372)
Assay: FRET or BRET

Chain of estrogen receptor α (as used in the TR-FRET assay) (P03372 311-547): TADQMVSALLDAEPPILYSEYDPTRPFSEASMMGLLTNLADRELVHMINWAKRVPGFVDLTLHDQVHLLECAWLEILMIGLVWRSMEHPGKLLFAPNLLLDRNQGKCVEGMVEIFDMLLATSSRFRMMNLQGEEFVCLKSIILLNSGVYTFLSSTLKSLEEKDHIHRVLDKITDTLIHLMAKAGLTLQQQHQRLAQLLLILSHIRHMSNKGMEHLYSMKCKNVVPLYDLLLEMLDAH

IC50: 1100 nM
Substance: SRC2-WT (peptide)
